Publication PMC5584586

Legend:
Test in all cases: SPR
[1] = molecular target: human FcγRIIIA 176F, HIS-tagged (human) (UniProt P08637)
[2] = molecular target: human FcγRI, HIS-tagged (human) (UniProt P12314)
[3] = molecular target: human FcγRIIIA 176V, HIS-tagged (human) (UniProt P08637)
[4] = molecular target: human FcγRIIA 167R, HIS-tagged (human) (UniProt P12318)
[5] = molecular target: human FcγRIIA 167H, HIS-tagged (human) (UniProt P12318)
[6] = molecular target: human FcγRIIB, HIS-tagged (human) (UniProt P31994)
Chain of UniProt P31994 (P31994 43-310): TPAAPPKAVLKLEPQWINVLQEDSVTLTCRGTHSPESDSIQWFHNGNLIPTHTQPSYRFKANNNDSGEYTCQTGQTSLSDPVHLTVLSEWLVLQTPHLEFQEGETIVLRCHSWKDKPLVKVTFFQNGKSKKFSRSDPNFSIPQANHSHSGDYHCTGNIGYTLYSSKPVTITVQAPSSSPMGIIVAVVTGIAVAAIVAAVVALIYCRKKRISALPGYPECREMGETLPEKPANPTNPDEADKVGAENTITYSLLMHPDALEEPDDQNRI

Chain of UniProt P12314 (P12314 16-374): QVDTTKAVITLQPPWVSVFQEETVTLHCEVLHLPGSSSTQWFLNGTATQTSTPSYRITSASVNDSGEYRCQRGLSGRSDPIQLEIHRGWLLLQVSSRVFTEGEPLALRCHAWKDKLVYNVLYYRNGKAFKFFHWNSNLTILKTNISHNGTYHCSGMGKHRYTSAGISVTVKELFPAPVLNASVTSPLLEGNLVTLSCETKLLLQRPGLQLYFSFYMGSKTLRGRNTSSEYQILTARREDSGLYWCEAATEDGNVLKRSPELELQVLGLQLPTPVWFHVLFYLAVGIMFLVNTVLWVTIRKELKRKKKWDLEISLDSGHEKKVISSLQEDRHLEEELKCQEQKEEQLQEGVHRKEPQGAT

Kd [1] [nM]	Kd [2] [nM]	Kd [3] [nM]	Kd [4] [nM]	Kd [5] [nM]	Kd [6] [nM]	Substance
2230	29	1050	> 10000	–	–	TA99 hIgG1 N297D/S298A/K326I/A327Y/L328G, aglycosylated (antibody)
1810	5	1040	2730	–	–	TA99 hIgG1 N297D/S298T/K326I/A327Y/L328G, aglycosylated (antibody)
1680	–	1790	–	–	–	TA99 hIgG1 N297H/S298A/K326I/A327Y/L328G, aglycosylated (antibody)
–	295	–	–	–	–	TA99 hIgG1 N297Q, aglycosylated (antibody)
–	–	–	> 10000	996	6450	TA99 hIgG1 S298G/T299A, aglycosylated (antibody)
1240	243	452	2490	605	2100	TA99 hIgG1 T299A/K326I/A327Y/L328G, aglycosylated (antibody)
4540	–	1700	8020	1150	3520	TA99 hIgG1 wild-type, glycosylated (from UniProt P01857 1-399) (antibody)
–	–	348	–	1100	6500	human IgG1 used as a control on Biacore (antibody)
